The target of assay [1] is T1, full-length human PACAP38 (human, not fully specified).
T1 construct: Corresponds to amino acids 132-169 of the precursor (NP 001108.2); The description says natural PACAP38 is C-terminally amidated; also called Full-length PACAP38
T1 peptide: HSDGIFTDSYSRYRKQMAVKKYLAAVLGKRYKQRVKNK
Nature of the assay: ELISA screen of B-cell culture supernatant; full-length PACAP38 at 10 ng/mL. From the text: (§1) Rabbits were immunized with human PACAP38 peptide ([…]; SEQ ID NO: 1). Monoclonal antibodies were generated from the immunized rabbits using the Selected Lymphocyte Antibody Method (SLAM) as described in Babcook et al., Proc. Natl. Acad. Sci. USA, Vol. 93: 7843-7848, 1996. Briefly, B cells were harvested from spleens from the immunized rabbits and expanded in culture. The supernatant from the expanded B-cell cultures was initially screened for binding to an amino terminal PACAP38 peptide ([…]; SEQ ID NO: 5) and a carboxy terminal PACAP38 peptide ([…]; SEQ ID NO: 4) using an ELISA assay. From the initial screen, 2,935 N-terminal and/or C-terminal binders were identified. The affinity of these antibodies for full-length human PACAP38 (SEQ ID NO: 1) was assessed by ELISA assay.

The target in assay [2] is T2, carboxy terminal PACAP38 peptide (amino acids 28-38) (human, ends and bridges not checked).
T2 construct: also called C-terminal Peptide; C-terminal PACAP peptide
T2 peptide: GKRYKQRVKNK
Nature of the assay: ELISA screen of B-cell culture supernatant; C-terminal peptide at 500 ng/mL.
Description: as §1

Assay [3] addresses T1, full-length human PACAP38. Nature of the assay: cell-based or functional assay.
The target of assay [4] is T3, vasoactive intestinal peptide (VIP) (human).
T3 construct: also called human VIP
T3 peptide: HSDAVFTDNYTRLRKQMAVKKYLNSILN
Nature of the assay: ELISA screen of B-cell culture supernatant; VIP at 100 ng/mL.

The target of a further assay is T4, human PACAP27 (human, not fully specified).
T4 peptide: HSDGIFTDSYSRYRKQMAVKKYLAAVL
Nature of the assay: cell-based or functional assay.

Assay [5] concerns the target T5, PACAP38 peptide fragment 6-36 (human).
T5 construct: also called peptide No. 12
T5 peptide: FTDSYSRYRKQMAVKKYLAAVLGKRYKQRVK
In words: SPR (Biacore 3000), solution competition: antibody pre-incubated 2 h with the peptide at 1:200 molar ratio (Ab:peptide), then injected over immobilised full-length PACAP38; readout % inhibition of antibody binding (filing counts >50 % as reactive). How it is done: (§2) The binding epitopes of anti-PACAP antibodies were evaluated by using the Biacore 3000 biosensor-based instrument (GE Healthcare USA). The Biacore 3000 instrument utilizes surface plasmon resonance (SPR) technology to measure mass increase on the sensor-chip surface. The binding interactions are measured in real-time and recorded as Response Units (RU). Each binding profile (cycle) is stored in a “sensorgram” in real-time. Generally, Biacore technology entails immobilizing a ligand of interest on to a flow-cell of the sensor-chip via a coupling chemistry. The analyte (e.g. putative binding partner to the ligand of interest) is injected across the immobilized ligand allowing it to bind to the ligand-immobilized surface. The magnitude of the response is directly proportional to the mass increase on the immobilized surface due to the binding of the analyte.
(§3) In this experiment, various peptide fragments of PACAP38 were incubated with each of the six antibodies (mAb1, mAb2, mAb3, mAb4, mAb5, and mAb6) described in Example 2 and evaluated for their ability to inhibit binding of the antibodies to full-length PACAP38 immobilized on the sensor-chip. The binding epitopes for each of the antibodies were deduced from the set of peptides that were able to inhibit the binding of each antibody to full-length PACAP38.
(§4) Each of the six anti-PACAP antibodies was incubated at a 1:200 molar ratio (Ab: peptide fragment) with each of the peptide fragments in Table 9 at an ambient temperature for 2 hours prior to analysis. […] A second control containing 6.5 nM antibody was prepared in sample diluent to be used as the untreated control sample for each antibody. Full-length PACAP38, buffer, and each peptide fragment were also tested to evaluate non-specific binding to the immobilized PACAP38 surface.

In assay [6] the target is T6, PACAP38 peptide fragment 6-38 (human, not fully specified).
T6 construct: also called peptide No. 11
T6 peptide: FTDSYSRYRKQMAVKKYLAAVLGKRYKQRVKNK
The description is as above. How it is done: as §2, §3, §4

Assay [7] concerns the target T7, PACAP38 peptide fragment 6-37 (human).
T7 construct: also called peptide No. 3
T7 peptide: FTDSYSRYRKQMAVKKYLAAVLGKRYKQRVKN
The description is as above. On the procedure:
as §2, §3, §4

In assay [8] the target is T8, PACAP38 peptide fragment 34-38 (human, ends and bridges not checked).
T8 construct: also called peptide No. 17; RVKNK
T8 peptide: RVKNK
In words: SPR (Biacore 3000), solution competition with the peptide for antibody binding to immobilised full-length PACAP38; % inhibition. How it is done: as §2, §3, §4

Assay [9] addresses T9, PACAP38 peptide fragment 6-20 (human).
T9 construct: also called peptide No. 13
T9 peptide: FTDSYSRYRKQMAVK
The assay is described as above. On the procedure:
as §2, §3, §4

The next assay concerns the target T10, 31-38 (ends and bridges not checked).
T10 construct: also called PACAP38 peptide fragment 31-38; peptide No. 5
T10 peptide: YKQRVKNK
The description is as above. On the procedure:
as §2, §3, §4

Another assay concerns the target T11, 30-37.
T11 construct: also called PACAP38 peptide fragment 30-37; peptide No. 19
T11 peptide: RYKQRVKN
Described as above. How it is done:
as §2, §3, §4

Assay [10] deals with T3, vasoactive intestinal peptide (VIP). Nature of the assay: ELISA screen of B-cell culture supernatant.
Assay [11] addresses T2, carboxy terminal PACAP38 peptide (amino …). Nature of the assay: ELISA screen of B-cell culture supernatant.
In assay [12] the target is T12, amino terminal PACAP38 peptide (amino acids 1-13) (human).
T12 construct: also called N-terminal Peptide; N-terminal PACAP peptide
T12 peptide: HSDGIFTDSYSRY
In words: ELISA screen of B-cell culture supernatant; N-terminal peptide at 500 ng/mL; ELISA screen of B-cell culture supernatant (Example 1); N-terminal peptide 500 ng/mL; optical density.
Description: as §1

Ends that are not written are not given here. Where only a bound is given, the exact number is not on record here.

The source of these data is patent US20180362643A1 (Amgen, published 2018).

B1: mAb5 (antibody, V domains shown)
VH: QSVEESGGRLVTPGTPLTLTCTVSGFSLSTYNMCWVRQAPGKGLEWVGFINSDDSAYYASWAKGRFTFSKTSTTVDLKIASPTTEDTATYFCARYDWDYYYSRLDLWGPGTLVTVSS
VL: DIVLTQTPASVSAAVGGTVSISCQSSESVYNNNYLSWFQQKPGQPPKLLIYGASTLASGVPSRFEGSGSGTQFTLTISDVQCDDAATYYCLGDYIIIENIFGGGTEVVVKG
notes: Rabbit monoclonal antibody (SLAM), recombinant; also called monoclonal anti-PACAP antibody 5; 5 (c71)
Consider B1, for which the “Optical Density” value came to 3.21 OD in assay [1], 0.05 OD in assay [2], 0.12 OD in assay [4] and 1.34 OD in assay [12]. Further, in [3], the “IC50: inhibition of PACAP38 (10 pM)-induced activation of human PAC1 receptor, cAMP assay in SH-SY5Y (CRL-2266) cells, POC versus antibody concentration” value came out at 1 nM. The “IC50: inhibition of PACAP27 (10 pM)-induced activation of human PAC1 receptor, cAMP assay in SH-SY5Y (CRL-2266) cells, POC versus antibody concentration” value with human PACAP27 turned out to be 26 nM. The binding result in assay [5] is “binds”; in [6] it was “binds”; in [7], “binds”; in [8], “no binding (tested: 1:200 molar ratio (Ab:peptide))”; in assay [9], “no binding (tested: 1:200 molar ratio (Ab:peptide))”; with 31-38, “no binding (tested: 1:200 molar ratio (Ab:peptide))”. For the same molecule, the binding result with 30-37 is “no binding (tested: 1:200 molar ratio (Ab:peptide))”; in assay [10], “no binding (tested: 100 ng/mL)”; in [11] it was “no binding (tested: 500 ng/mL)”.

B2: mAb6 (antibody, V domains shown)
VH: QLEESGGGLVQPGASLTLTCTTSGFSLSDNYLCWVRQAPGRGLEWVACIGIVLRSTGATYYASWAEGRFTISKTSPTTVTLEMTSLTAADTATYFCALDLGYGGPLWGPGTLVTVSS
VL: AQVLTQTPASVSAAVGGTVTINCQASQSVYNNKNLAWYQQKPGQPPKLLIYFSSTLASGVPSRFRGSGSGTQFTLTISGVQCGDAATYYCLGEFGSIWAFGGGTEVVVKG
notes: Rabbit monoclonal antibody (SLAM), recombinant; also called monoclonal anti-PACAP antibody 6; 6 (c55)
B2: the “Optical Density” value in assay [1] was 3.55 OD; in [2] it was 0.05 OD; in assay [4] it was 0.95 OD; in [12] it was 4.24 OD. In addition, the “IC50: inhibition of PACAP38 (10 pM)-induced activation of human PAC1 receptor, cAMP assay in SH-SY5Y (CRL-2266) cells, POC versus antibody concentration” value in [3] worked out at 0.6 nM. For the same molecule, in the assay with human PACAP27, the “IC50: inhibition of PACAP27 (10 pM)-induced activation of human PAC1 receptor, cAMP assay in SH-SY5Y (CRL-2266) cells, POC versus antibody concentration” value turned out to be 0.5 nM. Moreover, the binding result in assay [5] is “binds”; in assay [6], “binds”; in assay [7] it was “binds”; in [8], “no binding (tested: 1:200 molar ratio (Ab:peptide))”; in assay [9], “no binding (tested: 1:200 molar ratio (Ab:peptide))”; with 31-38, “no binding (tested: 1:200 molar ratio (Ab:peptide))”. Besides, the binding result is on record as “no binding (tested: 1:200 molar ratio (Ab:peptide))” with 30-37 and “no binding (tested: 500 ng/mL)” in [11].

B3: mAb2 (antibody, V domains shown)
VH: QSLEESGGGLVQPEGSLTLTCTASGFSFNSSSYMCWVRQAPGKGLEWIGCIFTGSSGNTYYATWAQGRFTISKTSTTVTLEMTSLTAADTATYFCARDRAYFLVGYFYATYYFDLWGPGTLVTVSS
VL: DVVMTQTPSPVSAQVGGTVTINCQASESIDSDLSWYQQKPGQPPKLLIYRTFTLESGVPSRFKGSGSGTDYTLTISDLECADAAIYYCQCTDGSSISGSYGWDAFGGGTEVVVKG
notes: Rabbit monoclonal antibody (SLAM), recombinant; also called monoclonal anti-PACAP antibody 2; 2 (c81)
As for B3, the “Optical Density” value in assay [1] turned out to be 3.39 OD; in [2], 3.74 OD; in [4], 0.09 OD. In addition, the “IC50: inhibition of PACAP38 (10 pM)-induced activation of human PAC1 receptor, cAMP assay in SH-SY5Y (CRL-2266) cells, POC versus antibody concentration” value in [3] came to 0.4 nM. In addition, in the assay with human PACAP27, the “IC50: inhibition of PACAP27 (10 pM)-induced activation of human PAC1 receptor, cAMP assay in SH-SY5Y (CRL-2266) cells, POC versus antibody concentration” value was more than 1 uM. The binding result in [6] is “binds”; in [7], “binds”; in assay [9], “no binding (tested: 1:200 molar ratio (Ab:peptide))”; in [10] it was “no binding (tested: 100 ng/mL)”.
